Data reported in the supplement of paper PMC7877785.
± gives the uncertainty stated by the source.

Assay: self-splicing fitness, log relative to wild type (ln ratio); higher = more splicing; Tetrahymena group I intron in knt gene, E. coli kanamycin selection, DiMSum; sequences stand for … in CUCUCU…GGAGGGAAAAGUUAUCAGGCAUGCACCUGGUAGCUAGUCUUUAAACCAAUAGAUUGCAUCGGUUUAAAAGGCAAGACCGUCAAAUUGCGGGAAAGGGGUCAACAGCCGUUCAGUACCAAGUCUCAGGGGAAACUUUGAGAUGGCCUUGCAAAGGGUAUGGUAAUAAGCUGACGGACAUGGUCCUAACCACGCAGCCAAGUCCUAAGUCAACAGAUCUUCUGUUGAUAUGGAUGCAGUUCACAGACUAAAUGUCGGUCGGGGAAGAUGUAUUCUUCUCAUAAGAUAUAGUCGGACCUCUCCUUAAUGGGAGCUAGCGGAUGAAGUGAUGCAACACUGGAGCCGCUGGGAACUAAUUUGUAUGCGAAAGUAUAUUGAUUAGUUUUGGAGUACUCGUGGUCG
Procedure, shortened: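 Fitness was computed with DiMSum as the error-weighted combination of replicate fold changes, kanamycin versus none, each normalised to wild type. The library randomised all eight intron nucleotides of the P1ex region, with the intron placed in the knt kanamycin-resistance gene on pET-22b(+) in E. coli BL21(DE3). Six replicate transformations were grown overnight at 37°C or 30°C on LB agar with or without 25 μg/mL kanamycin, plus 100 μg/mL carbenicillin, 50 μM IPTG and 0.2% rhamnose. Pooled colonies were amplicon-sequenced on an Illumina HiSeq 2500.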

Sequence | self-splicing fitness (ln) (30 °C) | self-splicing fitness (ln) (37 °C)
AACAAGCAAUAUUACGAUCC | -1.13 ± 0.077 | 0.0585 ± 0.1
AACAAGCAAUAUUACGAUGU | -1.64 ± 0.077 | -0.411 ± 0.094
AACAAGCAAUAUUACGCAUC | -2.41 ± 0.15 | -1.77 ± 0.18
AACAAGCAAUAUUACGCGCC | -0.296 ± 0.15 | -0.317 ± 0.18
AACAAGCAAUAUUACGCGGU | -3.69 ± 0.14 | -2.03 ± 0.11
AACAAGCAAUAUUACGCUAU | -2.25 ± 0.075 | -1.52 ± 0.074
AACAAGCAAUAUUACGGACU | -0.217 ± 0.063 | 0.775 ± 0.099
AACAAGCAAUAUUACGGAUA | -3.95 ± 0.2 | -2.18 ± 0.12
AACAAGCAAUAUUACGGAUG | -2.4 ± 0.08 | -2.37 ± 0.096
AACAAGCAAUAUUACGGAUU | -1.38 ± 0.071 | -0.641 ± 0.077
AACAAGCAAUAUUACGGCCC | -0.249 ± 0.12 | -0.0486 ± 0.2
AACAAGCAAUAUUACGGCCU | 0.0767 ± 0.082 | 0.355 ± 0.1
AACAAGCAAUAUUACGGCUU | -1.14 ± 0.081 | -0.539 ± 0.084
AACAAGCAAUAUUACGGGGU | -3.36 ± 0.11 | -2.28 ± 0.13
AACAAGCAAUAUUACGGUCG | -0.247 ± 0.08 | -0.152 ± 0.086
AACAAGCAAUAUUACGGUGA | -0.546 ± 0.059 | -0.765 ± 0.073
AACAAGCAAUAUUACGUACG | -1.65 ± 0.082 | -0.628 ± 0.094
AACAAGCAAUAUUACGUCGC | -3.63 ± 0.14 | -2.21 ± 0.17
AACAAGCAAUAUUACGUCUC | -3.51 ± 0.2 | -1.89 ± 0.16
AACAAGCAAUAUUACGUGCA | -0.969 ± 0.048 | -0.28 ± 0.065
AACAAGCAAUAUUACGUGCC | -0.971 ± 0.086 | -0.503 ± 0.12
AACAAGCAAUAUUACGUGCU | -2.57 ± 0.16 | -1.51 ± 0.14
AACAAGCAAUAUUACGUGGC | -3.61 ± 0.18 | -2.52 ± 0.14
AACAAGCAAUAUUACGUUGC | -2.83 ± 0.18 | -3.21 ± 0.32

Sequence | self-splicing fitness (ln) (30 °C) | self-splicing fitness (ln) (37 °C)
AACCAGCAAUAUUACGAGCA | -1.02 ± 0.092 | -0.505 ± 0.1
AACCAGCAAUAUUACGAGCC | -2.85 ± 0.17 | -1.72 ± 0.16
AACCAGCAAUAUUACGAGUU | -3.37 ± 0.16 | -1.78 ± 0.14
AACCAGCAAUAUUACGCAGU | -2.6 ± 0.11 | -1.35 ± 0.11
AACCAGCAAUAUUACGCCAU | -2.81 ± 0.15 | -1.42 ± 0.11
AACCAGCAAUAUUACGCCCC | -0.331 ± 0.12 | -0.517 ± 0.17
AACCAGCAAUAUUACGCCGU | -1.03 ± 0.079 | 0.182 ± 0.1
AACCAGCAAUAUUACGCCUA | -0.252 ± 0.076 | -0.557 ± 0.086
AACCAGCAAUAUUACGCGCC | -0.668 ± 0.1 | -0.521 ± 0.12
AACCAGCAAUAUUACGCGGA | -2.05 ± 0.093 | -0.49 ± 0.072
AACCAGCAAUAUUACGCGUA | -0.386 ± 0.063 | -0.313 ± 0.073
AACCAGCAAUAUUACGCUGC | -2.31 ± 0.18 | -3.1 ± 0.24
AACCAGCAAUAUUACGCUGU | -3.49 ± 0.15 | -1.4 ± 0.095
AACCAGCAAUAUUACGGGGG | -2.43 ± 0.095 | -1.02 ± 0.091
AACCAGCAAUAUUACGGUCA | -0.301 ± 0.045 | 0.0924 ± 0.062
AACCAGCAAUAUUACGUCUG | -3.9 ± 0.17 | -2.54 ± 0.16
AACCAGCAAUAUUACGUGAA | -0.843 ± 0.074 | -0.516 ± 0.087
AACCAGCAAUAUUACGUGGU | -3.19 ± 0.12 | -3.15 ± 0.17
AACCAGCAAUAUUACGUUGC | -3.21 ± 0.12 | -3.05 ± 0.19
AACGAGCAAUAUUACGAAUG | -4.03 ± 0.28 | -3.18 ± 0.25
AACGAGCAAUAUUACGAAUU | -2.78 ± 0.11 | -2.16 ± 0.12
AACGAGCAAUAUUACGACUA | -1.81 ± 0.21 | -0.213 ± 0.18
AACGAGCAAUAUUACGAGAA | -1.87 ± 0.22 | -1.56 ± 0.33
